One molecule from patent US8685401B2, “Methods of enhancing the response to radiation in tumor therapy using anti-DLL4 antibodies” (priority 2011, dated 2014) can be followed below.

The experiment deals with LS174T cells. Description: Apoptosis, Caspase-Glo 3/7 assay. In kind it is cell-based, human. The settings on record: 50 nM recombinant TRAIL, 2 hrs.

B1: TRAIL: recombinant TRAIL (R&D Systems), positive control for apoptosis (protein, UniProt P50591 1-281, looked up)
Tumor necrosis factor ligand …: MAMMEVQGGPSLGQTCVLIVIFTVLLQSLCVAVTYVYFTNELKQMQDKYSKSGIACFLKEDDSYWDPNDEESMNSPCWQVKWQLRQLVRKMILRTSEETISTVQEKQQNISPLVRERGPQRVAAHITGTRGRSNTLSSPNSKNEKALGRKINSWESSRSGHSFLSNLHLRNGELVIHEKGFYYIYSQTYFRFQEEIKENTKNDKQMVQYIYKYTSYPDPILLMKSARNSCWSKDAEYGLYSIYQGGIFELKENDRIFVSVTNEHLIDMDHEASFFGAFLVG
As for B1, the “apoptosis (caspase 3/7), positive control” value is recorded as “large increase in apoptosis”.
